Residue numbers refer to the chain shown, from its start. In names and notes the source's numbering stands. Like-named read-outs stand apart in the source and are kept apart here.
How the values were obtained:
[1] = assay type: biochemical
[2] = assay type: biochemical; remark: listed apart in the source
[3] = assay type: biochemical; details: read-out: 2NA hydrolysis KM
[4] = assay type: biochemical; details: read-out: DEPCyC hydrolysis KM
[5] = read-out: Paraxon hydrolysis KM
[6] = read-out: Phenylacetate hydrolysis KM

B1: G2E6: second-round directly evolved PON1 variant whose 3D structure was solved; SEQ ID NO: 28 (DNA), 60 (protein); 'wt' of Table 12 (protein)
chain: MAKLTALTLLGMGLALFDRQKSSFQTRFNVHREVTPVELPNCNLVKGIDNGSEDLEILPNGLAFISSGLKYPGIMSFDPDKSGKILLMDLNEKEPAVSELEIIGNTLDISSFNPHGISTFIDDDNTVYLLVVNHPGSSSTVEVFKFQEEEKSLLHLKTIRHKLLPSVNDIVAVGPEHFYATNDHYFIDPYLKSWEMHLGLAWSFVTYYSPNDVRVVAEGFDFANGINISPDGKYVYIAELLAHKIHVYEKHANWTLTPLRVLSFDTLVDNISVDPVTGDLWVGCHPNGMRIFFYDAENPPGSEVLRIQDILSEEPKVTVVYAENGTVLQGSTVAAVYKGKLLIGTVFHKALYCDL
modifications: In vitro evolved PON variant G2E6
- kcat (PheAc) ([1]; pH 8): 965 s⁻¹
- Km ([1]; pH 8, read-out: KM(PheAc)): 430 µM
- kcat(Paraoxon) ([2]; pH 8): 0.87 s⁻¹
- Km ([2]; pH 8, read-out: KM(Paraoxon)): 89 µM

B2: G1C4: first-round directly evolved PON1 variant, thioredoxin-fused; SEQ ID NO: 26 (DNA), 58 (protein) (protein)
chain: MAKLLALTLVGLGLALFDGQKSSFQTRFNVHREVTPVELPNCNLVKGIETGAEDLEILPNGLAFISSGLKYPGIMSFDPDKSGKILLMDLNEEDPVVLELGITGSTFDLSSFNPHGISTFTDEDNTVYLLVVNHPDSSSTVEVFKFQEKEKSLLHLKTIRHKLLPSVNDIVAVGPEHFYATNDHYFIDPYLKSWEMHLGLAWSFVTYYSPNDVRVVAEGFDFANGINISPDGKYVYIAELLAHKIHVYEKHANWTLTPLKSLDFNTLVDNISVDPVTGDLWVGCHPNGMRIFYYDPKNPPASEVLRIQDILSEDPKITVVYAENGTVLQGTTVASVYKGKLLIGTVFHKALYCDL
modifications: thioredoxin-fused; In vitro evolved PON variant G1C4
- kcat (PheAc) ([1]; pH 8): 552 s⁻¹
- Km ([1]; pH 8, read-out: KM(PheAc)): 540 µM
- kcat(Paraoxon) ([2]; pH 8): 0.54 s⁻¹
- Km ([2]; pH 8, read-out: KM(Paraoxon)): 120 µM

B3: G3A5: third generation trx-rPON3 variant; SEQ ID NO: 46, 52 (protein)
chain: MGELLLLTLLGASLAFVGEMFLAFRERVNASREVEPVEPQNCVLIEGLENGSEDIDILPNGLAFISSGLKYPGMPNFAPDEPGKIFLMDLNEQNPRAQELEISNGFEKESFNPHGISTFIDKDHTVYLYVVNHPNMDSTVEIFKFEERQRSLVHLKTIKHELLKSVNDIVVLGPEQFYATRDRYFTNYVLALLEMILDPHWTSVVFYSPKEVKVVAQGFSSANGITVSLDKKYVYVADATAKNVHVMEKHDNWDLTPVKVIQLGTLVDNLSVDPATGDILAGCHPNPMKLLNYNPEDPPGSEVLRIRNVLSEKPRVSTVYTNDGSVLQGTSVASVYQGKILIGTIFHKTLYCDL
modifications: thioredoxin fusion; In vitro evolved PON variant G3A5
- Km [2, 5]: 510 µM

B4: G2D6: second-round directly evolved PON1 variant, thioredoxin-fused; SEQ ID NO: 27 (DNA), 59 (protein) (protein)
chain: MAKLTALTLLGLGLALFDRQKSSFQTRFNVHREVTPVELPNCNLVKGIDNGSEDLEILPNGLAFISSGLKYPGIMSFDPDKSGKILLMDLNEEDPVVLELGITGSTFDLSSFNPHGISTFTDEDNTVYLLVVNHPDSSSTVEVFKFQEKERSLLHLKTIRHKLLPSVNDIVAVGPESFYATNDHYFADPYLKSWEMHLGLAWSFVTYYSPNDVRVVAEGFDFANGINISPDGKYVYIAELLAHKIHVYEKHANWTLTPLKSLDFNTLVDNISVDPVTGDLWVGCHPNGMRIFYYDPENPPGSEVLRIQDILSKEPKVTVVYAENGTVLQGSTVAAVYKGKLLIGTVFHKALYCDL
modifications: thioredoxin fusion; In vitro evolved PON variant G2D6
- kcat (PheAc) ([1]; pH 8): 562 s⁻¹
- Km ([1]; pH 8, read-out: KM(PheAc)): 320 µM
- kcat(Paraoxon) ([2]; pH 8): 0.98 s⁻¹
- Km ([2]; pH 8, read-out: KM(Paraoxon)): 100 µM

B5: G3G3: third generation trx-rPON3 variant; SEQ ID NO: 47, 53 (protein)
chain: MAKLLLLTLLGASLAFVGERLLAFRDSFGAVQELEPVEPQNCVLIEGLENGSEDIDILPSGLAFISSGLKYPGMPNFAPDEPGKIFLIDMNEKNPRAQALEISGGFDKESFNPHGISTFIDKDHTVYLYVVNHPNMDSTVEVFKFEEQQHSLIHLKTIKHELLKSVNDIVVLGPEQFYATRDHYFTNSLLSFFEMILDLRWTSVLFYSPREVKVVAKGFSSANGITVSLDKKYVYVADVAAKNIHIMEKHDNWDLTELKVIHLDTLVDNLTVDPATGDILAGCHPNPMKLLNYNPEDPPGSEVLRIQNVLSEKPRVSTVYANNGSVLQGTSVASVYHGKILIGTIFHKTLYCDL
modifications: thioredoxin fusion; In vitro evolved PON variant G3G3
- Km [3]: 650 µM

B6: G1B11: first generation trx-rPON3 variant; SEQ ID NO: 44, 50 (protein)
chain: MAKLLLLTLLGACLALIGERLLNFRERVSTTREIKATEPQNCHLIEGLENGSEDIDILPSGLAFISSGLKYPGMPNFAPDEPGKIFLIDMNEQNPRAQALEISGGFDKELFNPHGISTFIDKDHTVYLYVVNHPNMDSTVEIFKFEEQQHSLIHLKTLKHELLKSVNDIVVLGPEQFYATRDHYFTNYVLALLKMFLDLRWTSVLFYSPKEVKVVAKGFSSANGITVSLDKKYVYVADATAKNVHVMEKHDNWDLTELKVIQLGTLVDNLTVDPATGDILAGCHPNPMKLLIYNPEDPPGSEVLRIQDVLSEKPRVSTVYANNGSVLQGSTVASVYQGKILIGTIFHKTLYCVL
modifications: thioredoxin fusion; In vitro evolved PON variant G1B11
- Km [2, 5]: 1100 µM
- Km [3]: 180 µM

B7: RabPON3: wild-type rabbit PON3 expressed in E. coli fused to thioredoxin; SEQ ID NO: 30, 41 (protein, listed as Oryctolagus cuniculus)
chain: MAKLLLLTLLGASLAFVGERLLAFRNSFGAVQELEPVEPQNCVLIEGLENGSEDIDILPSGLAFISSGLKYPGMPNFAPDEPGKIFLIDMNEKNPRAQELEISNGFEKESFNPHGISTFIDKDHTVYLYVVNHPHMKSTVEIFKFEEQQRSLVHLKTIKHELLKSVNNIVVLGPEQFYATRDHYFTNYVLALLEMFLDLHWTSVLFYSPKEVKVVAKGFSSANGITVSLDKKYVYVADATAKNVHVMEKHDNWDLTELKVIHLDTLVDNLSVDPATGDILAGCHPNGMKLLNYNPEDPPGSEVLRIQNVLSEKPRVSTVYTNDGSVLQGSTVASVYQGKILIGTIFHKTLYCVL
modifications: thioredoxin fusion
- Km [2, 5]: 1300 µM
- Km [3]: 211 µM

B8: G1A7: first generation trx-rPON3 variant; SEQ ID NO: 43, 49 (protein)
chain: MAKLLLLTLLGVGLSLVGERLLAFRNSFGAVQELEPVEPQNCHLIEGLENGSEDIDILPSGLAFISSGLKYPGMPAFAPDKPGRIFLMDLNEQNPEAQALEISGGLDQESLNPHGISTFIDKDSTAYLYVVNHPNMDSTVEIFKFEEQQRSLVHMKTIKHELLKSVNNIVVLGPEQFYATRDHYFTNSLLSFFEMILDPHWTSVVFYSPREVKVVAKGFSSANGITVSLDKKYVYVADATAKNVHVMEKHDNWDLTELKVIHLDTLVDNLTVDPATGDILAGCHPNPMKLLIYNPEDPPGSEVLRIQDSLSDKPRVSTLYANNGSVLQGTSVASVYHGKILIGTIFHKTLYCDL
modifications: thioredoxin fusion; In vitro evolved PON variant G1A7
- Km [2, 5]: 2500 µM
- Km [3]: 160 µM

B9: G3C9.10: G3C9 variant with mutations L69V and E218D; SEQ ID NO: 62, 63 (protein)
chain: MAKLTALTLLGLGLALFDGQKSSFQTRFNVHREVTPVELPNCNLVKGVDNGSEDLEILPNGLAFISSGVKYPGIMSFDPDKSGKILLMDLNEEDPVVLELGITGNTLDISSFNPHGISTFTDEDNTVYLLVVNHPDSSSTVEVFKFQEEEKSLLHLKTIRHKLLPSVNDIVAVGPEHFYATNDHYFADPYLKSWEMHLGLAWSFVTYYSPNDVRVVADGFDFANGINISPDGKYVYIAELLAHKIHVYEKHANWTLTPLKSLDFDTLVDNISVDPVTGDLWVGCHPNGMRIFYYDPKNPPGSEVLRIQDILSEEPKVTVVYAENGTVLQGSTVAAVYKGKLLIGTVFHKALYCEL
modifications: In vitro evolved PON variant G3C9.10
- Km [1, 6]: 760 µM
- Km [4]: 50 µM

B10: G3C9.49: G3C9 variant with mutations G19R, S193P, N287D and V346A; SEQ ID NO: 64, 65 (protein)
chain: B9 chain with G19R, V69L, S193P, D218E, N287D, V346A
modifications: In vitro evolved PON variant G3C9.49
- Km [1, 6]: 300 µM
- Km [4]: 80 µM

B11: G2C2: second-generation trx-rPON3 variant; SEQ ID NO: 45, 51 (protein)
chain: MAKLLLLTLLGVGLSLVGERLLAFRNSFGAVQELEPVEPQNCVLIEGLENGSEDIDILPSGLAFISTGLKYPGMPNFAPDEPGKIFLMDLNEQNPRAQALEISGGFDKELFNPHGISTFIDKDNTVYLYVVNHPHMESTVEIFKFEEQQHSLIHLKTIKHELLKSVNDIVVLGPEQFYATRDHYFTNYVLARLEMILDLRWTYVLFYSPREVKVVAKGFSSANGITVSLDKKYVYVADATAKNVHVMEKHDNWDLTQLKVIQLGTLVDNLSVDPATGDILAGCHPNPMKLLNYNPEDPPGSEVLRIQNVLSEKPRVSTVYTNDGSVLQGTSVASVYQGKILIGTIFHKALHCDL
modifications: thioredoxin fusion; In vitro evolved PON variant G2C2
- Km [2, 5]: 800 µM
- Km [3]: 260 µM

B12: G3H9: third generation trx-rPON3 variant; SEQ ID NO: 48, 54 (protein)
chain: MAKLLLLTLLGVGLSLVGERLLAFRNSFGAVQELESVEPQNCVLIEGLENGSEDIDILPSGLAFISSGLKYPGMPNFAPDEPGKIFLIDMNEKNPRAQELKISNGFEKESFNPHGISTFIDKDHTVYLYVVNHPNMDSTVEIFKFEEQQRSLVHLKTIKHELLKSVNDIVVLGPEQFYATRDHYFTNSLLSFFEMILDLRWTSVVFYSPKEVKVVAKGFSSANGITVSLDKKYVYVADATAKNVHVMEKHDNWDLTPVKVIQLGTLVDNLTVDPATGDILAGCHPNPMKLLNYNPEDPPGSEVLRIQNVLSEKPRVSTVYTNDGSVLQGTSVASVYQGKILIGTIFHKALYCDL
modifications: thioredoxin fusion; In vitro evolved PON variant G3H9
- Km [2, 5]: 800 µM

— patent publication US7786071B2 (priority 2003, dated 2010)
